Earlier results in US5593962A, “Fibrillated calcitonin pharmaceutical compositions” (Ciba-Geigy Corporation, priority 1991, dated 1997).

What was measured:
[1] = physiological saline solutions or buffers

human calcitonin
stability in solution [1]: not stable
generation of neutralizing antibodies (after prolonged administration): not generating neutralizing antibodies
potency relative to salmon calcitonin (in vivo): less potent
